Results reported in patent publication US20200384061A1 (JCR PHARMACEUTICALS, published 2020).
Read-outs that look alike come from different tables or passages of the source.

How the values were obtained:
[1] = biological target: human TrkB (GenBank Acc. No. NP_001018074.1) expressed in CHO cells (CHO-TrkB cells) (human, UniProt Q16620 32-822); test: cell-based or functional assay
[2] = biological target: T1, recombinant human TfR (r human TfR, Sino Biological Inc.), extracellular region of hTfR with N-terminal … (human, UniProt P02786 89-760); test: BLI (OctetRED96); fusion protein captured via biotin-labeled anti-human BDNF antibody on SA biosensor, TfR in solution
T1 construct: also called r human TfR-ECD (Histag); recombinant hTfR; not shown: histidine tag added to the N-terminus
Protocol: (§1) Affinities of the hBDNF-anti-hTfR antibody (3N) 1 prepared in Example 22, to human TfR and to monkey TfR were measured. The measurement was generally performed by the following method. The biotin-labeled rabbit anti-human BDNF polyclonal antibodies (anti-human BDNF antibodies: PeproTech Corporation) was diluted with HBS-P+(1% BSA) (10 mM HEPES containing 150 mM NaCl, 50 μM EDTA, 0.05% Surfactant P20, and 1% BSA) to prepare the 15 μg/mL of solution, and the solution was designated as ligand solution 1. The purified product of an anti-hTfR antibody fusion BDNF (hBDNF-anti-hTfR antibody (3N) 1) was diluted with HBS-P+(1% BSA), and the solution was designated as ligand solution 2. And, as the reference control sample, the purified product of the hBDNF-anti-hTfR antibody (3) 1 obtained in Example 15-3 was also diluted with HBS-P+(1% BSA) to prepare ligand solution 3. r human TfR and r monkey TfR were respectively two fold serial diluted with HBS-P+(1% BSA) to prepare seven different concentrations of 0.78125 to 50 nM ([…] to 3.74 μg/mL). These TfR solution were used as TfR sample solutions.
(§2) The OctetRED96 was run under the condition shown in the following Table 15-3 to immobilize the anti-human BDNF antibody onto the sensor. Subsequently, after the OctetRED96 was run under the condition shown in the following Table 15-4 to obtain data, binding interaction curve was fitted to a 1:1 binding model or to a 2:1 binding model using the analysis software attached to the OctetRED96, the association rate constant (kon) and the dissociation rate constant (koff) of the anti-hTfR antibody fusion BDNF to r human TfR, and to r monkey TfR were measured, and the dissociation constant (KD) were calculated. The measurement was performed at 25° C. to 30° C.

[3] = biological target: T2, recombinant monkey TfR (r monkey TfR, Sino Biological Inc.), extracellular region of cynomolgus monkey TfR … (cynomolgus monkey (Macaca fascicularis), UniProt Q5RDH6 89-760 (Pongo abelii entry)); test: as above
T2 construct: not shown: histidine tag added to the N-terminus
T2 chain: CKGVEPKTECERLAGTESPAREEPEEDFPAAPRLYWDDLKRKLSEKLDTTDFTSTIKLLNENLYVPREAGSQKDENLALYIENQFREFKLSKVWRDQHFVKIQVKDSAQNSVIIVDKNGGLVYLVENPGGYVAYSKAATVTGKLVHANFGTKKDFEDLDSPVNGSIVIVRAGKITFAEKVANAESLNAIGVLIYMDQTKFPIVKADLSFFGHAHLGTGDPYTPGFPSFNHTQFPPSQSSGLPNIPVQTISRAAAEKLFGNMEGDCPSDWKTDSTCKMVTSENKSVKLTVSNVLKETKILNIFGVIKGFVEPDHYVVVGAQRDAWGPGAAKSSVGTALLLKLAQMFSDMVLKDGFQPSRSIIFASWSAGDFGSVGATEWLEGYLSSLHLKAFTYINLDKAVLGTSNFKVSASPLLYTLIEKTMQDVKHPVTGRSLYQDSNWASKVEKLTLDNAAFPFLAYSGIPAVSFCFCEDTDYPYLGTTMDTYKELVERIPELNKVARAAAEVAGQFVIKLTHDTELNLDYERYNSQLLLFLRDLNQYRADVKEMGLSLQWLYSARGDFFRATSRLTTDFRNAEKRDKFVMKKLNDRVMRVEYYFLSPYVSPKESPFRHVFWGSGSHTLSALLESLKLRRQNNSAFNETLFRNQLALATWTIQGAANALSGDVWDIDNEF
Protocol: as §1, §2

[4] = biological target: TrkB receptor on rat primary cultured neurons (corpus striatum of rat embryo) (rat, UniProt Q63604 32-821); test: cell-based or functional assay
TrkB receptor on rat primary cultured neurons (corpus striatum of rat embryo), sequence (Q63604 32-821): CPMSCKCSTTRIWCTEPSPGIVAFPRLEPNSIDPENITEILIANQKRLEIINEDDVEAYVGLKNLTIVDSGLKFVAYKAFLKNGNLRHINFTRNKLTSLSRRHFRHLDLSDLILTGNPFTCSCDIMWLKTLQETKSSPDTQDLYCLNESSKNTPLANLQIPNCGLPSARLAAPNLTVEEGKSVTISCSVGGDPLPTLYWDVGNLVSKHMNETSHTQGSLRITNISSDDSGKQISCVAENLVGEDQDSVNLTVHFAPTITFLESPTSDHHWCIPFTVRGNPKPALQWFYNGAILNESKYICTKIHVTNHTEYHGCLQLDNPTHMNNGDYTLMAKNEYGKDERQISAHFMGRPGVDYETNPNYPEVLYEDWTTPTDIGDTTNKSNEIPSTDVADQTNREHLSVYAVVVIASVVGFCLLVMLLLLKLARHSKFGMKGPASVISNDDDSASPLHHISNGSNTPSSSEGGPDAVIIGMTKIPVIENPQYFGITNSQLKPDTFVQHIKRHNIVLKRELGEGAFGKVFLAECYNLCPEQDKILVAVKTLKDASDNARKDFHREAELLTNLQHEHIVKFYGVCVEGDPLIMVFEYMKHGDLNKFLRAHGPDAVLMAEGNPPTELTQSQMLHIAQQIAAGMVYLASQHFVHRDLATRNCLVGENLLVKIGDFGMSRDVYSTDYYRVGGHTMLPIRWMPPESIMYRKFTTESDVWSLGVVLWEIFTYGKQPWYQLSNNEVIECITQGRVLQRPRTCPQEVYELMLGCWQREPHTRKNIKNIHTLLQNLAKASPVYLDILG

[5] = biological target: T3, human serum albumin preparation (HSA) (blood donation albumin 25-Nichiyaku, Nihon Pharmaceutical Co., Ltd.) (human, UniProt P02768 25-609); test: BLI (OctetRED96); fusion protein captured via biotin-labeled anti-human BDNF antibody on SA biosensor, HSA in solution
T3 construct: mature
T3 sequence (P02768 25-609): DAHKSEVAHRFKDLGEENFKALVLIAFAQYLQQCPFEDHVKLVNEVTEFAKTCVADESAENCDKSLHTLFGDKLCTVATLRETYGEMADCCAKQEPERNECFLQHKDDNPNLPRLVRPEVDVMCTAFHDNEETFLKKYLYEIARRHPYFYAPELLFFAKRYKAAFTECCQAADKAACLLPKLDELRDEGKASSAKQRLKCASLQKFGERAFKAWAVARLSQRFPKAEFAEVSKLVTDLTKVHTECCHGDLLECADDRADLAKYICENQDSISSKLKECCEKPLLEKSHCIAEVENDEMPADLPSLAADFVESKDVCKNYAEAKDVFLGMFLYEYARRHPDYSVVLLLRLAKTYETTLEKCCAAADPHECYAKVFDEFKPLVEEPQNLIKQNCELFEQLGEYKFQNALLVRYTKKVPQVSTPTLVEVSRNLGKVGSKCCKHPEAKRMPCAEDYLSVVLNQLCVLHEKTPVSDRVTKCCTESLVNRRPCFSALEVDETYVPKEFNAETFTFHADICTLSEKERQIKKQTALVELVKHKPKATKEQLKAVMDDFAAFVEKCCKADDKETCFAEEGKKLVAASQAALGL
Protocol: (§3) Affinities of a hBDNF-anti-hTfR antibody (3N) ABD to human TfR, monkey TfR, and human serum albumin (HSA) were measured on OctetRED96 (ForteBio Corporation, a division of Pall Corporation) which is a system for biomolecular interaction analysis utilizing biolayer interferometry (BLI), as same as Example 25. The measurement was generally performed by operation manual attached to the OctetRED96.
(§4) The biotin-labeled rabbit anti-human BDNF polyclonal antibodies (anti-human BDNF antibody: PeproTech Corporation) was diluted with HBS-P+(1% BSA) (10 mM HEPES containing 150 mM NaCl, 50 μM EDTA, 0.05% Surfactant P20, and 1% BSA) to prepare 25 μg/mL of solution, and the solution was designated as ligand solution 1. A purified product of an hBDNF-anti-hTfR antibody (3N) ABD was diluted with HBS-P+, and the solution was designated as ligand solution 2. r human TfR and r monkey TfR were respectively two-fold serial diluted with HBS-P+ to prepare seven-different concentration of 0.78125 to 50 nM (0.0585 to 3.74 μg/mL). These TfR solution were designated as a TfR sample solution. The r human TfR and the r monkey TfR, those described in Example 7 were used. And, human serum albumin preparation (HSA) (blood donation albumin 25-Nichiyaku, Nihon Pharmaceutical Co., Ltd.) was two-fold serial diluted with HBS-P+ to prepare solution of seven-different concentration of 3.13 to 200 nM (0.208 to 13.3 μg/mL). The HSA solution were designated as an HSA sample solution.
The OctetRED96 was run under the condition shown in the following Table 15-3 described in Example 25 to immobilize the anti-human BDNF antibody onto the sensor. Subsequently, after the OctetRED96 was run under the condition shown in Table 16-2 to obtain data, binding interaction curve was fitted to a 1:1 binding model using the analysis software attached to the OctetRED96, the association rate constant (kon) and the dissociation rate constant (koff) of the hBDNF-anti-hTfR antibody (3N) ABD, to r human TfR, r monkey TfR, and HSA were measured, and a dissociation constant (KD) were calculated. […]

[6] = biological target: T1, recombinant human TfR (r human TfR, …); test: BLI (OctetRED96); fusion protein captured via biotin-labeled anti-human BDNF antibody on SA biosensor, TfR in solution; remark: listed apart in the source
Protocol: as §3, §4
(§5) The OctetRED96 was run under the condition shown in the following Table 15-3 described in Example 25 to immobilize the anti-human BDNF antibody onto the sensor. Subsequently, after the OctetRED96 was run under the condition shown in Table 16-2 to obtain data, binding interaction curve was fitted to a 1:1 binding model using the analysis software attached to the OctetRED96, the association rate constant (kon) and the dissociation rate constant (koff) of the hBDNF-anti-hTfR antibody (3N) ABD, to r human TfR, r monkey TfR, and HSA were measured, and a dissociation constant (KD) were calculated. The measurement was performed at 25° C. to 30° C.

[7] = biological target: T2, recombinant monkey TfR (r monkey TfR, …); test: as above
Protocol: as §3, §4, §5

[8] = biological target: T2, recombinant monkey TfR (r monkey TfR, …); test: BLI (OctetRED96)

human TrkB (GenBank Acc. No. NP_001018074.1) expressed in CHO cells (CHO-TrkB cells), sequence (Q16620 32-822): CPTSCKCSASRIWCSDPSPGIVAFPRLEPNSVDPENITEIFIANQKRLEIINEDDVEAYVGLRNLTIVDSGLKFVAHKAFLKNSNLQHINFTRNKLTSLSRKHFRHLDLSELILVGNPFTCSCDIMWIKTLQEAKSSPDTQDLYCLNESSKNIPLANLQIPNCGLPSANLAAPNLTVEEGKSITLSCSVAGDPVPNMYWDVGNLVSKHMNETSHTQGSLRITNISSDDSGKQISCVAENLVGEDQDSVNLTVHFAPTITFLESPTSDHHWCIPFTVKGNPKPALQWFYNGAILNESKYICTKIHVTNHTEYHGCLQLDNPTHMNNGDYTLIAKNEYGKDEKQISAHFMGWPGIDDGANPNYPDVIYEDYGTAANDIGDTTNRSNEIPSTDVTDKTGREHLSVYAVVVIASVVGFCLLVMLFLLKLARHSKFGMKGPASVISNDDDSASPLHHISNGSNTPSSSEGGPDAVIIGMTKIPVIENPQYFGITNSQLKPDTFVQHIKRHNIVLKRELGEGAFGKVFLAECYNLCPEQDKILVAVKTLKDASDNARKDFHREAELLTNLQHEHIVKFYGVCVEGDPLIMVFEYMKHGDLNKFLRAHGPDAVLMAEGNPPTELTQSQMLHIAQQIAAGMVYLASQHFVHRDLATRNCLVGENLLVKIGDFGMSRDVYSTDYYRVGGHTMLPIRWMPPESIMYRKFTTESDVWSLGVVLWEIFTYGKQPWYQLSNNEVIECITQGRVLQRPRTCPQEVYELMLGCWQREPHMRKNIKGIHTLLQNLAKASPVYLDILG

B1: hBDNF-anti-hTfR antibody (3) 1 (other)
heavy: HSDPARRGELSVCDSISEWVTAADKKTAVDMSGGTVTVLEKVPVSKGQLKQYFYETKCNPMGYTKEGCRGIDKRHWNSQCRTTQSYVRALTMDSKKRIGWRFIRIDTSCVCTLTIKRGRGSGGGGSGGGGSGGGGSGGGGSGGGGSEVQLVQSGAEVKKPGESLKISCKGSGYSFTNYWLGWVRQMPGKGLEWMGDIYPGGDYPTYSEKFKVQVTISADKSISTAYLQWSSLKASDTAMYYCARSGNYDEVAYWGQGTLVTVSSASTKGPSVFPLAPSSKSTSGGTAALGCLVKDYFPEPVTVSWNSGALTSGVHTFPAVLQSSGLYSLSSVVTVPSSSLGTQTYICNVNHKPSNTKVDKKVEPKSCDKTHT
light: DIVMTQTPLSLSVTPGQPASISCRSSQSLVHSNGNTYLHWYLQKPGQSPQLLIYKVSNRFSGVPDRFSGSGSGTDFTLKISRVEAEDVGVYYCSQSTHVPWTFGQGTKVEIKRTVAAPSVFIFPPSDEQLKSGTASVVCLLNNFYPREAKVQWKVDNALQSGNSQESVTEQDSKDSTYSLSSTLTLSKADYEKHKVYACEVTHQGLSSPVTKSFNRGEC
[1]
  BDNF activity (TrkB agonistic: EC50, nmol/L): 0.16 nmol/L
[2]
  Kd: 0.251 nM
[3]
  Kd: 39.4 nM

B2: hBDNF-anti-hTfR antibody (3N) 1 (other)
heavy: HSDPARRGELSVCDSISEWVTAADKKTAVDMSGGTVTVLEKVPVSKGQLKQYFYETKCNPMGYTKEGCRGIDKRHWNSQCRTTQSYVRALTMDSKKRIGWRFIRIDTSCVCTLTIKRGRGGGGSGGGGSGGGGSGGGGSGGGGSEVQLVQSGAEVKKPGESLKISCKGSGYSFMNYWLGWVRQMPGKGLEWMGDIYPGGDYPTYSEKFKVQVTISADKSISTAYLQLSSLKASDTAMYYCARSGNYDEVAYWGQGTLVTVSSASTKGPSVFPLAPSSKSTSGGTAALGCLVKDYFPEPVTVSWNSGALTSGVHTFPAVLQSSGLYSLSSVVTVPSSSLGTQTYICNVNHKPSNTKVDKKVEPKSCDKTHT
light: B1 light
notes: copies set to 2 on that ground; also called anti-hTfR antibody fusion BDNF; hBDNF-humanized anti-hTfR antibody fusion protein
[1]
  BDNF activity (TrkB agonistic: EC50, nmol/L): 0.43 nmol/L
[4]
  Erk phosphorylation activity (EC50, nmol/L): 0.02 nmol/L
[2]
  Kd: 0.00742 nM
  koff: 3.54e-06 s⁻¹
  kon: 477000 M⁻¹ s⁻¹
[3]
  Kd: 0.794 nM
  koff: 0.000196 s⁻¹
  kon: 245000 M⁻¹ s⁻¹

B3: hBDNF-anti-hTfR antibody (3N) ABD (other)
heavy: HSDPARRGELSVCDSISEWVTAADKKTAVDMSGGTVTVLEKVPVSKGQLKQYFYETKCNPMGYTKEGCRGIDKRHWNSQCRTTQSYVRALTMDSKKRIGWRFIRIDTSCVCTLTIKRGRGGGGSGGGGSGGGGSGGGGSGGGGSEVQLVQSGAEVKKPGESLKISCKGSGYSFMNYWLGWVRQMPGKGLEWMGDIYPGGDYPTYSEKFKVQVTISADKSISTAYLQLSSLKASDTAMYYCARSGNYDEVAYWGQGTLVTVSSASTKGPSVFPLAPSSKSTSGGTAALGCLVKDYFPEPVTVSWNSGALTSGVHTFPAVLQSSGLYSLSSVVTVPSSSLGTQTYICNVNHKPSNTKVDKKVGGGGSGGGGSGGGGSLAEAKVLALRELDKYGVSDYYKDLIDKAKTVEGVKALIDEILAALP
light: B1 light
notes: BDNF-Fab-ABD fusion
[1]
  BDNF activity (TrkB agonistic: EC50, nmol/L): 0.3 nmol/L
[4]
  Erk phosphorylation activity (EC50, nmol/L): 0.02 nmol/L
[5]
  Kd: 13.5 nM
  koff: 0.000829 s⁻¹
  kon: 61300 M⁻¹ s⁻¹
[6]
  Kd: 0.0566 nM
  koff: 4e-05 s⁻¹
  kon: 707000 M⁻¹ s⁻¹
[7]
  Kd: 0.626 nM
  koff: 0.000145 s⁻¹
  kon: 231000 M⁻¹ s⁻¹

B4: humanized anti-hTfR antibody No. 3N (antibody, human IgG1, kappa, V domains shown)
VH: EVQLVQSGAEVKKPGESLKISCKGSGYSFMNYWLGWVRQMPGKGLEWMGDIYPGGDYPTYSEKFKVQVTISADKSISTAYLQLSSLKASDTAMYYCARSGNYDEVAYWGQGTLVTVSS
VL: DIVMTQTPLSLSVTPGQPASISCRSSQSLVHSNGNTYLHWYLQKPGQSPQLLIYKVSNRFSGVPDRFSGSGSGTDFTLKISRVEAEDVGVYYCSQSTHVPWTFGQGTKVEIKR
notes: IgG1; Same light chain as humanized No. 3; also called Humanized anti-hTfR antibody 3N
[8]
  KD relative to that of the humanized anti-hTfR antibody No. 3: ~0.033 fold
  affinity relative to that of the humanized anti-hTfR antibody No. 3: ~30 fold
